Source: PMC4871749 (Nature chemical biology, 2016)
No end group written: not given here. *: point of attachment. Crotonyl(E) = C/C=C/C(=O)*

Experiments:
[1] = biological target: Taf14 YEATS domain (construct of the fluorescence assay) (yeast) (UniProt P35189); assay: other fluorescence titration
[2] = biological target: T1, Taf14 YEATS domain, Taf14 (1-132), uniformly 15N-labeled (yeast, UniProt P35189 1-132); assay: NMR titration
T1 sequence (looked up): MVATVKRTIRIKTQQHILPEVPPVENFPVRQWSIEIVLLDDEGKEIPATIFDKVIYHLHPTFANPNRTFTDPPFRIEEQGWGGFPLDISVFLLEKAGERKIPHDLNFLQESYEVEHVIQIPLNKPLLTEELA

[3] = biological target: T2, Taf14 YEATS domain (residues 1-137) (yeast, UniProt P35189 1-137); assay: crystal structure
T2 sequence (looked up): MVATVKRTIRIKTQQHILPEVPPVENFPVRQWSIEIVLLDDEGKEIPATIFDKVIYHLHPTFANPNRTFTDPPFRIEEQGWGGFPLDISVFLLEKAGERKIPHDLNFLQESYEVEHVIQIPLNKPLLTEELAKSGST

Molecule	Kd [1] [µM]	binding result [2]	binding result [3]
H3K9cr5-13 peptide (residues 5-13 of H3, crotonylated at lysine 9) (from UniProt P61830 6-14)	9.5		
QTARK(Ac)STGG (peptide, UniProt P61830 6-14, looked up) [H3K9ac5-13 peptide (residues 5-13 of H3, acetylated at lysine 9)]		binds	
QTARK(Crotonyl(E))STGG (peptide, UniProt P61830 6-14, looked up) [H3K9cr5-13 peptide (residues 5-13 of H3, crotonylated at lysine 9)]		binds	binds
